This data set can be described thus: yeast display, Sf9 membrane polyspecificity reagent, FACS + sequencing; frameworks hold sequencing errors. The method, boiled down:
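Galactose induction of a Saccharomyces cerevisiae BJ5465 synthetic nanobody display library ran 36–48 hours. The cells were then stained for 1 hour at 4 °C with 10% biotinylated, detergent-solubilized Sf9 membrane reagent, pulled down on streptavidin microbeads and FACS-sorted into low and high (top ~1%) gates on expression and reagent-binding fluorescence. Labels for polyreactivity follow the gate of origin.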
“QVQLVESGGGLVQAGGSLRLSCAASGGTFIVYAMGWYRQAPGKERELVAAITYSGGSTYYADSVKGRFTISRDNAKNTVYLQMNSLKPEVTAVYYCAARPFVSSWLQYAEGGDYWGQGTQVTVSS”: the “polyreactivity (PSR sort gate)” value is “low polyreactivity”.
Take “QVQLVESGGGLVQAGGSLRLSCAASGGTFKPNVMGWYRQAPGKERELVAAITSGGSTYYADSVKGRFTMSRDNAKNTVYLQMNSLKPEDTAVYYCAATSLRRYGYNYWGQGTQVTVSS”: the “polyreactivity (PSR sort gate)” value is given as “high polyreactivity”.
With “QVQLVESGGGLVQAGGSLRLSCAASGGTFLAYAMGWSRQAPGKEREFVAGISNDGDTNYADSVKGRFTISRDNAKNTVYLQMNSLKPEDTAVYYCAALYRGYAVAASYYHWGQGTQVTVSS”, the “polyreactivity (PSR sort gate)” value is given as “high polyreactivity”.
In the case of “QVQLVESGGGLVQAGGSLRLSCAASGGTFNHYAMGWYRQAPGKERELVASITNGASTYYADSVKGRFTISRDNAKNTVYLQMNSLKPEDTAVYYCAKRGRVGKYRYEYWGQGTQVTVSS” it was “low polyreactivity”; in that of “QVQLVESGGGLVQAGGSLRLSCAASGGTFPLYAMGWYRQAPGKERELVAAIRWSGGRTYYADSVKGRFTISRDNAKNTVYLQMNSLKPEDTAVYYCAADYDDGWGYDYWGQGTQVTVSS”, “high polyreactivity”.
Consider “QVQLVESGGGLVQAGGSLRLSCAASGGTFPQNLMGWYRQAPGQERELVAAISSGGSTYYADSGKGRFTISRDNAKNSVYLQMNSLKPEDTAVYYCAKRRWYRYDYWGQGTQVTVSS”, for which the “polyreactivity (PSR sort gate)” value was “high polyreactivity”.
In the case of “QVQLVESGGGLVQAGGSLRLSCAASGGTFPWYTKGWYRQAPGKERELVATIRGRDGSTFYADSVKGRFTISRDNAKNTVYLQMNSLKPEDTAVYYCAAVGRRKDLRWGVYYRFDYWGQGTQVTVSS” it was “low polyreactivity”; in that of “QVQLVESGGGLVQAGGSLRLSCAASGGTFPYNAMGWYRQAPGKEREFVAAISYTGGSTYYADSVKGRFTISRDNAKNTVYLQMNSLKPEDTAVYYCATEHTRTASGYWGQGTQVTVSS”, “low polyreactivity”; in that of “QVQLVESGGGLVQAGGSLRLSCAASGGTFPYYAMGWYRQAPGKERELVADISGTDGSTYYADSVKGRFTISRDNAKNTVYLQMNSLKPEDTAVYYCNAEPHWWYWDYDYWGQGTQVTVSS”, “high polyreactivity”.
Regarding “QVQLVESGGGLVQAGGSLRLSCAASGGTFQDYGMGWYRQAPGTERELVAAITWSGGSTYYADSVKGRFTISRDNAKNTVYLQMNSLKPEDTAVYYCAAVYADVYLYLTAYDYWGQGTQVTVSS”, the “polyreactivity (PSR sort gate)” value is “low polyreactivity”.
Take “QVQLVESGGGLVQAGGSLRLSCAASGGTFRAYVMGWYRQAPGKERELVAAISRRGGSTYYADSVKGRFTISRDNAKNTVYLQMNSLKPEDTAVYYCNAPRLLLSYTPGLDRWPYGVYWGQGTQVTVSS”: the “polyreactivity (PSR sort gate)” value is reported as “high polyreactivity”.
Take “QVQLVESGGGLVQAGGSLRLSCAASGGTFRGYAMGWYRQAPGKERELVAAISRGTSTNYADSVKGRFTISRDNAKNTVYLHLNSLKPEDTAVYYCNAAKRGWYYDYYYWGQGTQVTVSS”: the “polyreactivity (PSR sort gate)” value is listed as “high polyreactivity”.
With “QVQLVESGGGLVQAGGSLRLSCAASGGTFRGYAMGWYRQAPGKERELVAAITYSGGRTYYADSVKGRFTISRDNAKNTVYLQMNSLKPEDTAVYYCNAQSSGRLSYRYDYWGQGTQVTVSS”, the “polyreactivity (PSR sort gate)” value is on record as “high polyreactivity”.
As for “QVQLVESGGGLVQAGGSLRLSCAASGGTFRNYAMGWYRQAPGKERELVAGITSGSRTNYADSVKGRFTISRDNAKNTVYLQMNSLKPEDTAVYYCNARGNYVGRPYPVKHAYRSYYWGQGTQVTVSS”, the “polyreactivity (PSR sort gate)” value is “high polyreactivity”.
Under “QVQLVESGGGLVQAGGSLRLSCAASGGTFRRYAMGWYRQAPGKEREFVAAITISGGNTYYADSVKGRFTISRDNAKNTVYLQMNSLKPEDTAVYYCAKDHIRKQPEGRRMDYWGQGTQVTVSS” stands “low polyreactivity”; under “QVQLVESGGGLVQAGGSLRLSCAASGGTFRRYAMGWYRQAPGKERELVAAISWTGGSTYYADSVKGRFTISRDNAKNTVYLQMNSLKPEDTAVYYCAAVGSSSSKGGYWGQGTQVTVSS”, “high polyreactivity”.

The record behind these values is the nanobody polyreactivity screen of Harvey et al. (2022).
